The target in the test is MBP-Cnn fusion containing the WT PReM domain (MBP-Cnn-WT) (Drosophila melanogaster). The test is described as follows: SEC-MALS; purified MBP-Cnn fusions; equal volume of protein at 15, 75 or 300 uM loaded onto the column; expected monomer mass 67.4 kDa (by MS). In general terms: SEC sorts molecules by how far they enter the pores of the column.

In the case of “MBP-Cnn fusion containing the WT PReM domain (MBP-Cnn-WT) (domain or fragment)”, the stoichiometry N (in general, the number of molecules, sites or subunits per partner or assembly) came out at 2.

Values taken from paper PMC3988887.
